Patent US20250271431A1 (NEW ERA MABS, published 2025)
Values joined by “and” are separate entries in the source; they are usually repeats but may differ in a detail not shown here. Equal values may be shown once. Read-outs that look alike come from different tables or passages of the source.

Key:
[1] = molecular target: T1, SARS-CoV-2 Spike protein-RBD-mFc (Acrobiosystem; SPD-C5259) (SARS-CoV-2; mouse, UniProt P0DTC2 319-541); experiment: SPR (Biacore T200), […], kinetic fit 1:1 binding, […]
T1 construct: domain: RBD

[2] = molecular target: T1, SARS-CoV-2 Spike protein-RBD-mFc …; experiment: as above; remark: listed apart in the source
[3] = molecular target: T1, SARS-CoV-2 Spike protein-RBD-mFc …
[4] = molecular target: epitope sequence SEQ ID No 21 ([…]) (SARS-CoV-2); experiment: RepliTope peptide microarray, Cy5 fluorescence
Procedure: (§1) The peptide library consisted of 15-meric peptides representing overlapping peptide scans. […] Incubation took place for 1 hour at 30° C. Biotin-labeled secondary antibody (mouse-anti-camelid IgG) was added at 2 μg/mL and incubated for 1 hour. Detection was visualized using Cy5-labeled streptavidin at 0.1 μg/mL incubated for 1 hour. After washing and drying, the slides were scanned with a high-resolution laser scanner at 635 nm to obtain fluorescence intensity profiles. Resulting images were quantified to yield a mean pixel value for each peptide.

[5] = molecular target: epitope sequence SEQ ID No 39 ([…]) (SARS-CoV-2); experiment: RepliTope peptide microarray, Cy5 fluorescence
Procedure: as §1

[6] = molecular target: epitope sequence SEQ ID No 36 ([…]) (SARS-CoV-2); experiment: RepliTope peptide microarray, Cy5 fluorescence
Procedure: as §1

[7] = molecular target: epitope sequence SEQ ID No 28 ([…]) (SARS-CoV-2); experiment: RepliTope peptide microarray, Cy5 fluorescence
Procedure: as §1

[8] = molecular target: epitope sequence SEQ ID No 25 ([…]) (SARS-CoV-2); experiment: RepliTope peptide microarray, Cy5 fluorescence
Procedure: as §1

[9] = molecular target: epitope sequence SEQ ID No 27 ([…]) (SARS-CoV-2); experiment: RepliTope peptide microarray, Cy5 fluorescence
Procedure: as §1

[10] = molecular target: epitope sequence SEQ ID No 29 ([…]) (SARS-CoV-2); experiment: RepliTope peptide microarray, Cy5 fluorescence
Procedure: as §1

[11] = molecular target: epitope sequence SEQ ID No 30 ([…]) (SARS-CoV-2); experiment: RepliTope peptide microarray, Cy5 fluorescence
Procedure: as §1

[12] = molecular target: epitope sequence SEQ ID No 38 ([…]) (SARS-CoV-2); experiment: RepliTope peptide microarray, Cy5 fluorescence
Procedure: as §1

B1: hcAb B10 (clone B10), camelid full length IgG2 heavy chain only antibody (antibody, V domains shown)
VH: DVQLQESGGGLVQPGGSLRLSCAASGDINTIGTMNWFRQAPGKGREFVALITSGGTTNYADSVKGRFTVSRDNAKNTVYLQMNSLKPEDTAVYHCYGADHYSDYWGQGTQVTVSS
notes: also called mAb B10
- Kd [1]: 0.397 nM
- koff [1]: 0.000463 s⁻¹
- kon [1]: 1.17e+06 M⁻¹ s⁻¹
- Kd [2]: 0.372 nM and 0.385 nM
- koff [2]: 0.000454 s⁻¹ and 0.000459 s⁻¹
- kon [2]: 1.22e+06 M⁻¹ s⁻¹ and 1.19e+06 M⁻¹ s⁻¹
- Kd [3]: 0.39 nM
- average signal intensity [4]: 48600 mean pixel value
- average signal intensity [5]: 15200 mean pixel value
- average signal intensity [6]: 800 mean pixel value
- average signal intensity [7]: 14000 mean pixel value
- average signal intensity [8]: 750 mean pixel value
- average signal intensity [9]: 14000 mean pixel value
- average signal intensity [10]: 353 mean pixel value
- average signal intensity [11]: 644 mean pixel value
- average signal intensity [12]: 18100 mean pixel value
